Assay results from article PMC5922973, “Topoisomerase VI senses and exploits both DNA crossings and bends to facilitate strand passage” (eLife, 2018).

T1: topo VI H2TH-EEE (Methanosarcina mazei, UniProt Q8PUB7;Q8PUB8 1-369;1-621, R263E;K268E;K308E)
T1 sequence 1: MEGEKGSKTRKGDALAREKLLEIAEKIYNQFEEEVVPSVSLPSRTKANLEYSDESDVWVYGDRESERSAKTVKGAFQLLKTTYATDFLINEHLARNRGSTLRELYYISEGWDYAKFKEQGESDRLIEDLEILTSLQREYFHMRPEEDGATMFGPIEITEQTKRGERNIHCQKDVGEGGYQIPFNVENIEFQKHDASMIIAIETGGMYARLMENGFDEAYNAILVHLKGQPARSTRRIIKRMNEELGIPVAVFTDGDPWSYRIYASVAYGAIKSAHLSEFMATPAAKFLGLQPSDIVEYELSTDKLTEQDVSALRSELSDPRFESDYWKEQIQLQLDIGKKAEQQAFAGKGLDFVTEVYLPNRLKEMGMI
T1 sequence 2: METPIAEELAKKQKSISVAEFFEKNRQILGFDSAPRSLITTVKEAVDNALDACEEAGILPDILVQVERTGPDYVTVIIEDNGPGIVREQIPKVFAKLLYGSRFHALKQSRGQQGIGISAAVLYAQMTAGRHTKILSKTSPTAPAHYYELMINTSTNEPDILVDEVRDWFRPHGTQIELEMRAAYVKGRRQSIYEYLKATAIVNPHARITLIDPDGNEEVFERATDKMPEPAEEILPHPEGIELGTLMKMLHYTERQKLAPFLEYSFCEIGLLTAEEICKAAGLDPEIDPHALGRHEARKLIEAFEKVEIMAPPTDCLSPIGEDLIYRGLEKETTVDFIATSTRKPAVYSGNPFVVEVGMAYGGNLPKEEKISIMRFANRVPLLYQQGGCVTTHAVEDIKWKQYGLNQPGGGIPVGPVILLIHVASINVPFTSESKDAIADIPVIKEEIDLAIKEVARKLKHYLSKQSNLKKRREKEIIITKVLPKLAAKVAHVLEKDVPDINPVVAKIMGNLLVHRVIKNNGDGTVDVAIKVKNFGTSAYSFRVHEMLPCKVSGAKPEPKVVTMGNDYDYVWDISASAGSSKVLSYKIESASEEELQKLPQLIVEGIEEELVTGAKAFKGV

T2: topo VI KGRR-AAA (Methanosarcina mazei, UniProt Q8PUB7;Q8PUB8 1-369;1-621, K186A;R188A;R189A)
T2 sequence 1: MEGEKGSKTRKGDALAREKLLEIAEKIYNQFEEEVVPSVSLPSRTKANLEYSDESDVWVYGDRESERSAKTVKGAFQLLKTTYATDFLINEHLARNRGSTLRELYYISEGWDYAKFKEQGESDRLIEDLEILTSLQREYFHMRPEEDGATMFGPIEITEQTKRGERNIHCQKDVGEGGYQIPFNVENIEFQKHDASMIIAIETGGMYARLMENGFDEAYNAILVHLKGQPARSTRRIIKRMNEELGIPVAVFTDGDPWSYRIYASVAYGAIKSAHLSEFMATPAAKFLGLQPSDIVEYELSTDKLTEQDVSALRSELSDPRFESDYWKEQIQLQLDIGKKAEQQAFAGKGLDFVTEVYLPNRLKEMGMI
T2 sequence 2: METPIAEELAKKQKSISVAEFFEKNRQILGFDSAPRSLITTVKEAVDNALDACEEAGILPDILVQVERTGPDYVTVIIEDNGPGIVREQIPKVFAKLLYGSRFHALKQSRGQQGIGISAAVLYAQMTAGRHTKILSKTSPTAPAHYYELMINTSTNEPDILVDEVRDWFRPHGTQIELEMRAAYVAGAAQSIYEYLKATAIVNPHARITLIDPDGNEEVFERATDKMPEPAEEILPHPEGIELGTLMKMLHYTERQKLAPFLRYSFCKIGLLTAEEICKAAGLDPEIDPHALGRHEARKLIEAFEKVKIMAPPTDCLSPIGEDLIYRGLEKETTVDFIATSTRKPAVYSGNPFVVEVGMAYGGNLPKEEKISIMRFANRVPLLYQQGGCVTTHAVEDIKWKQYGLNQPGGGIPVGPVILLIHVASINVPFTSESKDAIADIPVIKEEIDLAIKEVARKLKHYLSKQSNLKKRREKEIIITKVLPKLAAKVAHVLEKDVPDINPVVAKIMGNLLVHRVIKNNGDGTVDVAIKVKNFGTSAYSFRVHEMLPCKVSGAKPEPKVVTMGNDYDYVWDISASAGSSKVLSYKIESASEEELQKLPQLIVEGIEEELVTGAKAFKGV

T3: topo VI KGRR-EEE (Methanosarcina mazei, UniProt Q8PUB7;Q8PUB8 1-369;1-621, K186E;R188E;R189E)
T3 sequence 1: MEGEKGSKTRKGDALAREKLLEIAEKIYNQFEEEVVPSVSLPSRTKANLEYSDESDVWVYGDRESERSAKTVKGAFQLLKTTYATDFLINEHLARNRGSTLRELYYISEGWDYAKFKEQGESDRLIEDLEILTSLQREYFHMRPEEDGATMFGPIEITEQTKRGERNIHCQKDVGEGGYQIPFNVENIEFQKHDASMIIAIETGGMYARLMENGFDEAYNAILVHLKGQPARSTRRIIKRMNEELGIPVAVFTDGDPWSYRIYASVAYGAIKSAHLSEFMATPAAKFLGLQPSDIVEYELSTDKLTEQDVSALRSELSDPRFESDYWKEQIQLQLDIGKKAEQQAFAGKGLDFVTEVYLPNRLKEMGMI
T3 sequence 2: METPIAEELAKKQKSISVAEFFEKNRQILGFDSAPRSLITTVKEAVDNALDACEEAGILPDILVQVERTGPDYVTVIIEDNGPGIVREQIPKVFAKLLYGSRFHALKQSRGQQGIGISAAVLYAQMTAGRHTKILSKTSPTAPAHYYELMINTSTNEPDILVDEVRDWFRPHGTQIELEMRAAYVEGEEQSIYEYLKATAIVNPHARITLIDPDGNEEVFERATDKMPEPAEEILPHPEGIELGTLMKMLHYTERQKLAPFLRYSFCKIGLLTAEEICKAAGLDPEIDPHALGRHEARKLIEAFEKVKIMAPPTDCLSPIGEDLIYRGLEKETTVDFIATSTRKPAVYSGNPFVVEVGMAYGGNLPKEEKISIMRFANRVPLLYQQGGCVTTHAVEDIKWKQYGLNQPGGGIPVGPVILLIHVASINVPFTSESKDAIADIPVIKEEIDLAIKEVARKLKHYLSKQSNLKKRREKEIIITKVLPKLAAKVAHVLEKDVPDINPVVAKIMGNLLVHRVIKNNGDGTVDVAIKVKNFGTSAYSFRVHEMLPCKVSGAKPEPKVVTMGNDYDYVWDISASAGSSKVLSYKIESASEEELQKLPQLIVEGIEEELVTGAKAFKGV


Legend:
topo VI H2TH-EEE [1] = target: T1, topo VI H2TH-EEE; experiment: fluorescence anisotropy; Fluorescence anisotropy, 20 nM FAM-labelled DNA, topo VI 0 and 3.9-4000 nM, no nucleotide; buffer, salt, pH and temperature not given in supplied text; settings: protein: recombinant, tags: N-terminal His6-TEV on Top6B, removed, chain copies: 2;2
topo VI KGRR-AAA = target: T2, topo VI KGRR-AAA; experiment: as above; settings: protein: recombinant; tags: N-terminal His6-TEV on Top6B, removed; chain copies: 2;2; label: 5'-FAM strand 1; blunt
topo VI KGRR-EEE = target: T3, topo VI KGRR-EEE; experiment: fluorescence anisotropy; FA: 20 nM probe, 50 mM K-glutamate, 20 mM HEPES-KOH pH 7.5, 10 mM MgCl2, 5% glycerol, 1 mM TCEP, 0.1 mg/mL BSA; incubated on ice, read at ambient temperature; competition with 100 nM enzyme; settings: protein: recombinant; tags: N-terminal His6-TEV on Top6B, removed; chain copies: 2;2; label: 5'-FAM strand 1; blunt
topo VI H2TH-EEE [2] = target: T1, topo VI H2TH-EEE; experiment: fluorescence anisotropy; Hill h 1.3; FA: 20 nM probe, 50 mM K-glutamate, 20 mM HEPES-KOH pH 7.5, 10 mM MgCl2, 5% glycerol, 1 mM TCEP, 0.1 mg/mL BSA; incubated on ice, read at ambient temperature; competition with 100 nM enzyme; settings: protein: recombinant; tags: N-terminal His6-TEV on Top6B, removed; chain copies: 2;2; label: 5'-FAM strand 1; blunt

Binder | apparent K (half saturation) (topo VI H2TH-EEE [1]; label: 5'-FAM strand 1, blunt) [nM] | Kd (topo VI KGRR-AAA) [nM] | further results
70 bp duplex (dsDNA) DNA 1: CCAAATGCTTCAATAATATTGAAAAAGGAAGAGTATGAGTATTCAACATTTCCGTGTCGCCCTTATTCCC DNA 2: GGGAATAAGGGCGACACGGAAATGTTGAATACTCATACTCTTCCTTTTTCAATATTATTGAAGCATTTGG | 103 ± 3 | 124 ± 6 | 
20 bp duplex (dsDNA) DNA 1: CGGAAGAGTATGAGTATTCG DNA 2: CGAATACTCATACTCTTCCG |  | 338 ± 11 | Kd (topo VI H2TH-EEE [1]; label: 5'-FAM strand 1, blunt): 222 ± 11 nM
60 bp duplex (dsDNA) DNA 1: CGCTTCAATAATATTGAAAAAGGAAGAGTATGAGTATTCAACATTTCCGTGTCGCCCTTC DNA 2: GAAGGGCGACACGGAAATGTTGAATACTCATACTCTTCCTTTTTCAATATTATTGAAGCG | 109 ± 3 | 99 ± 2 | Kd (topo VI KGRR-EEE): 119 ± 3 nM
30 bp duplex (dsDNA) DNA 1: CAAAAAGGAAGAGTATGAGTATTCAACATC DNA 2: GATGTTGAATACTCATACTCTTCCTTTTTG |  | 65 ± 4 | Kd (topo VI H2TH-EEE [2]): 94 ± 5 nM
40 bp duplex (dsDNA) DNA 1: CTATTGAAAAAGGAAGAGTATGAGTATTCAACATTTCCGC DNA 2: GCGGAAATGTTGAATACTCATACTCTTCCTTTTTCAATAG |  | 67 ± 4 | 
16 x 20 bp stacked junction (structured_DNA) DNA 1: CGAATACTCAGCTCAACCGAAAGGTTGAGCCTTCGCTCGAAAGAGCGAAGTACTCTTCCG DNA 2: CGGAAGAGTATGAGTATTCG |  |  | Kd (topo VI H2TH-EEE [1]; label: 5'-FAM strand 2, four-way Holliday junction, stacked-X, two GAAA-capped arms): 90 ± 4 nM
